The values below are quoted from earlier work in publication PMC6353226.

For data set [1], the target named is IGF1R pY1161 (Homo sapiens) (UniProt P08069).
Data set [2] has as its target IGF1R pY1165 (Homo sapiens) (UniProt P08069).

YES1 SH2 (from UniProt P07947): the dissociation constant (Kd) in data set [1] and in data set [2] was 900 nM each time.
